The text below walks through data of the nanobody polyreactivity screen of Harvey et al. (2022).

The series is described as follows: yeast display, Sf9 membrane polyspecificity reagent, FACS + sequencing; frameworks hold sequencing errors. The essentials:
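A synthetic nanobody library was expressed on Saccharomyces cerevisiae BJ5465 by galactose induction for 36–48 hours. The library was stained for 1 hour at 4 °C with 10% biotinylated, detergent-solubilized Sf9 membrane reagent and enriched with streptavidin microbeads before FACS. Low and high (top ~1%) gates were set on anti-HA fluorescence for expression and streptavidin fluorescence for reagent binding, and each polyreactivity label reflects the gate of origin.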
In the case of “QVQLVESGGGLVQAGGSLRLSCAASGSIFYYNTMGWYRQAPGKERELVAAISRSGTSTFYADSVKGRFTISRDYAKNTVYLQMNSLKPEDTAVYYCNAESLGWYRLYTVDYWGQGTQVTVSS”, the “polyreactivity (PSR sort gate)” value is listed as “low polyreactivity”. For “QVQLVESGGGLVQAGGSLRLSCAASGSIFYYYAMGWYRPAPGKERELVAAINSSGGNTYYADSVKGRFTISRDNAKNTVYLQMNSLKPEDTAVYYCAAASRSTNYNYWGQGTQVTVSS” the value was “high polyreactivity”.

As to “QVQLVESGGGLVQAGGSLRLSCAASGSIFYYYAMGWYRQAPGKERELVAAINSGVSTYYADSVKGRFTISRDNAKNTVYLQMNSLKPEDTAVYYCAAPGHNLYGSWFSWTPDTYDYWGQGTQVTVSS”, the “polyreactivity (PSR sort gate)” value is reported as “low polyreactivity”. For “QVQLVESGGGLVQAGGSLRLSCAASGSIFYYYAMGWYRQAPGKERELVAAINSGVSTYYADSVKGRFTISRDNAKNTVYLQMNSLKPEDTAVYYCDATGHNLYGSWFSWTPDTYDYWGQGTQVTVSS” the value was “low polyreactivity”; for “QVQLVESGGGLVQAGGSLRLSCAASGSIFYYYAMGWYRQAPGKERELVAAISKSGGSTYADSVKGRFTISRDNAKNTVYLQMNSLKPEDTAVYYCAATYYYSWYAFNYWGQGTQVTVSS”, “low polyreactivity”; for “QVQLVESGGGLVQAGGSLRLSCAASGSIFYYYTMGWYRQAPGKERELVAAITWSGGRTYYADSVKGRFTISRDNAKNTVYLQMNSLKPEDTAVYYCNVDPYYGGIGDYWGQGTQVTVSS”, “high polyreactivity”. To “QVQLVESGGGLVQAGGSLRLSCAASGSIIAANAMGWYRQAPGKERELVAAITFDSGSTHYADSVKGRFTISRDNAKNTFYLQMNSLKPEDTAVYYCAVRDFNSDYDDWGQGTQVTVSS” belongs “low polyreactivity”; to “QVQLVESGGGLVQAGGSLRLSCAASGSIIAGYTMGWYRQAPGKERELVAGIRRGGSTNYADSVKGRFTISRDNAKNTVYLQMNSLKPEDTAVYYCAAYYRLDYDYWGQGTQVTVSS”, “high polyreactivity”. To “QVQLVESGGGLVQAGGSLRLSCAASGSIIARYAMGSYRQAPGKERELVATITRGGSTNYADSVKGRFTISRDNAKNTVYLQMNSLKPEDTAVYYCARTSYGRLDYWGQGTQVTVSS” belongs “low polyreactivity”; to “QVQLVESGGGLVQAGGSLRLSCAASGSIIDTYAMGWYRQAPGKERELVASWSGGSTYYADSVKGRFTISRDNAKNTVYLQMNSLKPEDTAVYYCAKDYYVQPPGTRDDYWGQGTQVTVSS”, “low polyreactivity”.

For “QVQLVESGGGLVQAGGSLRLSCAASGSIIDYYARGWYRQAPGKERELVAAISDSGSTYYADSVKGRFTISRDNAKNTVYLQMNSLKPEDTAVYYCAAVLWSPYRSEPLDTYEYWGQGTQVNVSS”, the “polyreactivity (PSR sort gate)” value is “low polyreactivity”. To “QVQLVESGGGLVQAGGSLRLSCAASGSIIFVNAMGWYRQAPGKERELVADISSGGSTNYADSVKGRFTISRDNAKNTVYLLMNSLKPEDTAVYYCNTDEPPIYERFPYDYWGQGTQVNVSS” belongs “low polyreactivity”; to “QVQLVESGGGLVQAGGSLRLSCAASGSIIGRNAMGWYRQAPGQEREMVAAISTRGGRTYYADSVKGRFTISRDNAKNNDYLQMNSLKPEDTAVYYCAAVGPYRWYDYWGQGTQVTVSS”, “high polyreactivity”; to “QVQLVESGGGLVQAGGSLRLSCAASGSIIGRYAMGWYRQAPGKERELVAAISKNGGSRYYADSVKGRFTISRDNAKNTVYLQMNSLKPEDTAVYYCNTVRYSCNYRDQEGDYWGQGTQVTVSS”, “high polyreactivity”.

For the sequence “QVQLVESGGGLVQAGGSLRLSCAASGSIIGTNVMGWYRQAPGKERELVASISYRDGTTYYADSVKGRFTISRDNAKNTLYLQMNSLKPEDTAVYYCAVANYYSYYWGQGTQVTVSS”, the “polyreactivity (PSR sort gate)” value is “low polyreactivity”. For the sequence “QVQLVESGGGLVQAGGSLRLSCAASGSIIHSYAMGWYRQAPGKERELVAAISRNGGSTYYADSVKGRFTISRDNAKITVYLQMNSLKPEDTAVYYCAKTYSQTWRYGYWGQGTQVTVSS”, the “polyreactivity (PSR sort gate)” value was “high polyreactivity”. As for “QVQLVESGGGLVQAGGSLRLSCAASGSIIHYTMGWYRQAPGKERELVAAISKSGGSTYYADSVKGRFTISRDNAKNTVYLQMNSLKPEDTAVYYCAAVGYYAWTFGYDYWGQGTQVTVSS”, the “polyreactivity (PSR sort gate)” value is listed as “high polyreactivity”. Turning to “QVQLVESGGGLVQAGGSLRLSCAASGSIIIGNTMGWYRQAPGKERELVATIRRSGSRTYYADSVKGRFTISRDNAKNTVYLQMNSLKPEDTAVYYCAADRLRTSGYKTIYDYWGQGTQVTVSS”, the “polyreactivity (PSR sort gate)” value is “low polyreactivity”. Regarding “QVQLVESGGGLVQAGGSLRLSCAASGSIILAYAMGWYRQAPGKERELVAAITGSGGRTYADSVKGRFTISRDNAKNTVYLEMNSLKPEVTAVYYFAAYYYGNWQGYYWGQGTQVIVSS”, the “polyreactivity (PSR sort gate)” value is given as “low polyreactivity”. To “QVQLVESGGGLVQAGGSLRLSCAASGSIIPLYAMGWYRQAPGKERELVAAISRRGGSTYYADSVKGRFTISRDNAKNTVYLQMNSLKPEDTAVYYCAVDTPSPSRGPRFNYWGQGTQVTVSS” belongs “high polyreactivity”; to “QVQLVESGGGLVQAGGSLRLSCAASGSIIPLYAMGWYRQAPGKERELVATINRRTGSTYADSVKGRFTISRDNAKNTVYLQMNSLKPEDTAVYYCNAADNYVRFYKTRIYNYWGQGTQVTVSS”, “high polyreactivity”; to “QVQLVESGGGLVQAGGSLRLSCAASGSIIPYYAMGWYRQAPGKERELVAAISNSGGRTYYADSVKGRFTISRDNAKNTVYLQMNSLKPEDTAVYYCNAVPFYSKYDYWGQGTQVTVSS”, “high polyreactivity”. To “QVQLVESGGGLVQAGGSLRLSCAASGSIIRGNAMGWYRQAPGKERELVAAISKRGGSTYYADSVKGRFTISRDNAKNTVYLQMNSLKPEDTAVYYCASDLPAALGFDYWGQGTQVTVSS” belongs “high polyreactivity”. “QVQLVESGGGLVQAGGSLRLSCAASGSIIRGYAIGWFRPAPGKERELVAAITSSGGSTYYADSVKGRFTISRDNAKNTVYLQMNSLKPEETAVYYCTKYRYSYKYNYWGQGTQVTVSS”: the “polyreactivity (PSR sort gate)” value was “high polyreactivity”.

Turning to “QVQLVESGGGLVQAGGSLRLSCAASGSIIRHNVMVWYRQAPGKERELVAAISGGGGRTYYADSVKGRFTISRDNAKNTVSLQMNRLKPEDTAVYYCNAYVGLSEGDYWGQGTQVTVSS”, the “polyreactivity (PSR sort gate)” value was “high polyreactivity”. For the sequence “QVQLVESGGGLVQAGGSLRLSCAASGSIIRNAMGWYRQAPGKERELVAAINWSGGSTYYADSVKGRFTISRDNAKNTVYLQMNSLKPEDTAVYYCNKVRGTVHATRRNGDYWGQGTQVTVSS”, the “polyreactivity (PSR sort gate)” value is reported as “high polyreactivity”.

As for “QVQLVESGGGLVQAGGSLRLSCAASGSIISFNTMGWYRQPPGKEREFVASIRRRGGSTYYADSVKGRFTISRDNAKNTVYLQMNSLKPEDTAVYYCAKANPHYVISDGVYHPRGGYWGQGTQVTVSS”, the “polyreactivity (PSR sort gate)” value is “low polyreactivity”.

Take “QVQLVESGGGLVQAGGSLRLSCAASGSIISRNAMGWYRQAPGKERELVAAITSSGDSTYYADSVKGRFTISRDNAKNTVYLQMNSLKPEDTAVYYCNARAYRRKRYDYWGQGTQVTVSS”: the “polyreactivity (PSR sort gate)” value is on record as “high polyreactivity”. For “QVQLVESGGGLVQAGGSLRLSCAASGSIISWYVMGWYRQAPGKERELVAAITWGGGSRYYADSVKGRFTISRDNAKNTVYLQMNSLKPEDTAVYYCEFDYWGQGTQVSVSS” the value was “low polyreactivity”; for “QVQLVESGGGLVQAGGSLRLSCAASGSIISYNAMGWYRQAPGKERELVAGIDLGDGTTYYADSVKGRFTISRDNAKNTVYLQMNSLKPDDTAVYYCNADIQIRPYGYAGTSTDEGLGYWGQGTQVTVSS”, “low polyreactivity”; for “QVQLVESGGGLVQAGGSLRLSCAASGSIISYYAMGWYRQAPGKERELVAAISRGGGRTYYADSVKGRFTISRDNAKNTVYLQMNSLKPEDTAVYYCAVTPVRFASGGAWMDYWGQGTQVTVSS”, “high polyreactivity”. On to “QVQLVESGGGLVQAGGSLRLSCAASGSIIWLYAMGWYRQAPGKERELVAAISSGGSTYYADSVKGRFTISRDNAKNTVYLQMNSLKPEDTAVYYCAADYWSQSDWWDLTEYEYWGLGTQVTVSS”, for which the “polyreactivity (PSR sort gate)” value is listed as “high polyreactivity”. Take “QVQLVESGGGLVQAGGSLRLSCAASGSIIWRNAMGWYIQAPGKERELVAAISYSGGSTYYADSVKGRFTISRDNAKNTVYLQMNSLKPEDTAVYYCAARTSYYVYRHPSGRYDYWGQGSQVTVSS”: the “polyreactivity (PSR sort gate)” value is “low polyreactivity”. For “QVQLVESGGGLVQAGGSLRLSCAASGSIIYFYAMGWYRPAPGKERELVAAISITSASTYYADSVKGRFTISRDNAKNTVYLQMNSLKPEDTAVYYCAAEYYYVDWIYDYWGQGTQVTVSS” the value was “high polyreactivity”.

For the sequence “QVQLVESGGGLVQAGGSLRLSCAASGSIIYNNAMGWYRQAPGKERELVAAIRSTGTRTYYADSVKGRFTISRDNAKNTVYLQMNSLKPEDTAVYYCAVGDYGLWSYVYWGQGTQVTVSS”, the “polyreactivity (PSR sort gate)” value is listed as “low polyreactivity”. To “QVQLVESGGGLVQAGGSLRLSCAASGSIIYYAMGWYRQAPGKEREFVAAITKSGGSTYYADSVKGRFTFSRDNAKNTVYLQMNSLKPEDTAVYYCAARGTWAGFYYWGQGTQVTLSS” belongs “high polyreactivity”.

For the sequence “QVQLVESGGGLVQAGGSLRLSCAASGSIKQNSMGWYRQAPGKERELVAAIDWDGSSTYYADSVKGRFTISRDNAKNTVYLQMNSLKPEDTAVYYCNTDYTGPDGTDEYDYWGQVTQVTVSS”, the “polyreactivity (PSR sort gate)” value was “low polyreactivity”. For “QVQLVESGGGLVQAGGSLRLSCAASGSILAGYAMGWYRQAPGKERELVAAITSGGGSTYYADSVKGRFTISSDNAKITVYLQMNSLKAEDTAVYYCARDSGYYYDEYYYWGQGTKVTVSS” the value was “low polyreactivity”. Take “QVQLVESGGGLVQAGGSLRLSCAASGSILCLNAMGWYRQAPGKERELVADITRGGSTYYADSVKGRFTISRDNAKNTVYLQMNSLKPEDTAVYYCAADAYTGQIPYYYFEHYYWGQGTQVTVSS”: the “polyreactivity (PSR sort gate)” value is recorded as “high polyreactivity”. For “QVQLVESGGGLVQAGGSLRLSCAASGSILDIYAMGWYRQAPGKERELVAGISTSGGSTYYADSVKGRFTISRDNAKNTVYLQMNSLNPEDTAVYYCAKDYGYQGLTRTLYCAYLEYDYWGQGTQVTVSS” the value was “low polyreactivity”.

Turning to “QVQLVESGGGLVQAGGSLRLSCAASGSILDPNAMGWYRQAPGKERELVASISRGDNTYYADSVKGRFTISRDNAKNTVYFQMNSLKPEDTAVYDCAADYSWVVWHDYWGQGTQVTVSS”, the “polyreactivity (PSR sort gate)” value was “low polyreactivity”.
